Assay in all cases: flow cytometry on cells
The target of experiment [1] is T1, Bak(72–89) R88A–eCPX fusion displayed on E. coli (UniProt Q16611 72-89, R88A).
T1 chain (looked up): GQVGRQLAIIGDDINRAY

The target of experiment [2] is T2, Bak(72–89) Y89A–eCPX fusion displayed on E. coli (UniProt Q16611 72-89, Y89A).
T2 chain (looked up): GQVGRQLAIIGDDINRRA

Experiment [3] deals with T3, Bak(72–89) R88E–eCPX fusion displayed on E. coli (UniProt Q16611 72-89, R88E).
T3 chain (looked up): GQVGRQLAIIGDDINREY

In experiment [4] the target is T4, Bak(72–89)–eCPX fusion displayed on E. coli (UniProt Q16611 72-89).
T4 chain (looked up): GQVGRQLAIIGDDINRRY

Experiment [5] concerns the target T5, Bak(72–89) R88Q–eCPX fusion displayed on E. coli (UniProt Q16611 72-89, R88Q).
T5 chain (looked up): GQVGRQLAIIGDDINRQY

Experiment [6] addresses T6, Bak(72–88)–eCPX fusion displayed on E. coli (UniProt Q16611 72-88).
T6 chain (looked up): GQVGRQLAIIGDDINRR

The target of experiment [7] is T7, Bak(72–87)–eCPX fusion displayed on E. coli (UniProt Q16611 72-87).
T7 chain (looked up): GQVGRQLAIIGDDINR

B1: biotinylated Bcl-2 chimera (isoform 2): residues 1–34 of Bcl-2, residues 35–50 of Bcl-xL, residues 92–207 of Bcl-2 (other, UniProt P10415 1-34, looked up)
chain: MAHAGRTGYDNREIVMKYIHYKLSQRGYEWDAGDTEAPEGTESEMETPSAVVHLTLRQAGDDFSRRYRRDFAEMSSQLHLTPFTARGRFATVVEELFRDGVNWGRIVAFFEFGGVMCVESVNREMSPLVDNIALWMTEYLNRHLHTWIQDNGGWDAFVELYGPSMR
modifications: biotin on the lysine of the biotin acceptor peptide (…)
Take B1: the median fluorescence in experiment [1] was determined as 24.6 AU; in experiment [2] it was 11.9 AU; in experiment [3], 8.4 AU; in experiment [4], 19.1 AU; in experiment [5], 11.1 AU; in experiment [6] it was 8.3 AU. Moreover, the median fluorescence in experiment [7] stood at 2.1 AU.

Source of the values: article PMC2913173 (Journal of molecular biology, 2009).
